Source: IntAct's records for PubMed 19322201

Molecular target: elav1_human ELAVL1 (UniProt Q15717)

- effect of a mutation on the interaction: disrupting interaction
Substance: Polyubiquitin-C (Homo sapiens) (from UniProt P0CG48) K48R
